Results on five proteins are retold here after publication PMC6652007, “Metabolic engineering of Clostridium thermocellum for n-butanol production from cellulose” (Biotechnology for Biofuels, 2019).

Substrate in series [1]: C/C=C/C(=O)SCCNC(=O)CCNC(=O)[C@H](O)C(C)(C)COP(=O)(O)OP(=O)(O)OC[C@H]1O[C@@H](n2cnc3c(N)ncnc32)[C@H](O)[C@@H]1OP(=O)(O)O
As to the kind of experiment: NADH oxidation, A340. As to conditions: 0.3 mM NADH, 100 mM MOPS-KOH pH 7.5, 55 °C. In kind it is biochemical, Winmispira thermophila. An excerpt: NADH oxidation, A340 on St_Ter

Substrate in series [2]: NC(=O)C1=CN([C@@H]2O[C@H](COP(=O)(O)OP(=O)(O)OC[C@H]3O[C@@H](n4cnc5c(N)ncnc54)[C@H](O)[C@@H]3O)[C@@H](O)[C@H]2O)C=CC1
As to the kind of experiment: NAD(P)H oxidation, A340. As to conditions: crotonyl-CoA as substrate, 100 mM MOPS-KOH pH 7.5, 55 °C, varied: cofactor. It is filed as biochemical, Winmispira thermophila. An excerpt: (§1) NAD(P)H oxidation, A340 on St_Ter

Substrate in series [3]: NC(=O)C1=CN([C@@H]2O[C@H](COP(=O)(O)OP(=O)(O)OC[C@H]3O[C@@H](n4cnc5c(N)ncnc54)[C@H](OP(=O)(O)O)[C@@H]3O)[C@@H](O)[C@H]2O)C=CC1
As to the kind of experiment: NAD(P)H oxidation, A340. In kind it is biochemical, Winmispira thermophila. Particulars: crotonyl-CoA as substrate, 100 mM MOPS-KOH pH 7.5, 55 °C, varied: cofactor.
Text: as §1

Substrate in series [4]: CC(=O)SCCNC(=O)CCNC(=O)[C@H](O)C(C)(C)COP(=O)(O)OP(=O)(O)OC[C@H]1O[C@@H](n2cnc3c(N)ncnc32)[C@H](O)[C@@H]1OP(=O)(O)O
As to the kind of experiment: coupled Hbd assay, A340. In kind it is biochemical, Thermoanaerobacterium thermosaccharolyticum. Particulars: coupled with Hbd, 100 mM MOPS-KOH pH 7.5, 55 °C. An excerpt: coupled Hbd assay, A340 on Tt_Thl

Usually Km stands for the substrate concentration at which the rate is half of its maximum. Usually Vmax stands for the rate approached at saturating substrate.

B1: St_Ter (Winmispira thermophila DSM 6578) (protein)
chain: MVIKPMIRNNICMNAHPEGCRLFVDRQIDYVRQRGPLSSGPKNVLVVGSSGGYGLATRIAAGFGAGAATIGVYFEKEPSEKRTGTPGWYAARHFLKRAEAAGLKVHDINGDAFSFEVKAQVVDLIKKEYGTIDLFVYSLASGVRTDPVSGVTYRSALKPIGRTYTSKALDPLKREVVQAAIEPASEEEIEATVKVMGGEDWQLWVEALKEGGVLAEGAVTVAYSYIGPELTRPIYREGTIGKAKEHLEATAKTLDEALASVGGKAYVSVNKAVVTRASAVIPAVPLYLSILFTVMKAKGIHEGCIEQMYRMLAERLYAGGPVPVDDEGRIRMDDWEMREDVQREVAEVWERITTETLDTEADVDGYLTDFLNLHGFGFKEIDYEKEVDPREG
notes: His-tagged (vector pD861-CH), codon-optimised, expressed in E. coli BL21(DE3)
For B1, the Km in series [1] stood at 30 ± 10 µM; in series [2], 30 ± 10 µM; in series [3] it was 400 ± 100 µM. Besides, the Vmax in series [2] was 18.2 µmol/min/mg; in series [3], 12.2 µmol/min/mg.

B2: St_Ter (Winmispira thermophila DSM 6578; E75A) (protein)
chain: MVIKPMIRNNICMNAHPEGCRLFVDRQIDYVRQRGPLSSGPKNVLVVGSSGGYGLATRIAAGFGAGAATIGVYFAKEPSEKRTGTPGWYAARHFLKRAEAAGLKVHDINGDAFSFEVKAQVVDLIKKEYGTIDLFVYSLASGVRTDPVSGVTYRSALKPIGRTYTSKALDPLKREVVQAAIEPASEEEIEATVKVMGGEDWQLWVEALKEGGVLAEGAVTVAYSYIGPELTRPIYREGTIGKAKEHLEATAKTLDEALASVGGKAYVSVNKAVVTRASAVIPAVPLYLSILFTVMKAKGIHEGCIEQMYRMLAERLYAGGPVPVDDEGRIRMDDWEMREDVQREVAEVWERITTETLDTEADVDGYLTDFLNLHGFGFKEIDYEKEVDPREG
notes: as for B1
For the protein B2, the values for the Km in series [2] and in series [3] were 600 ± 100 µM and 20 ± 10 µM, respectively. Also, the maximal velocity (Vmax) in series [2] was found to be 10.3 µmol/min/mg; in series [3], 68.1 µmol/min/mg.

B3: Tt_Thl (Thermoanaerobacterium thermosaccharolyticum DSM 571) (protein)
chain: MKEVVIASGVRTAVGKFGGTLLNVPAVDLGAVVIKEALKRANVKPEDVSEVIMGNVLQAGLGQNPARQAEIKAGIPVEVPAMTVNMVCGSGLRAVTLAAQAVMLGDADIVVAGGMENMSRAPYILNDARFGYRMNNGQLVDEMVYDGLTDVFNQYHMGITAENLAEKYGISREEQDEFAYRSQKLASEAISSGRFEDEIVPVIVPQKKGEPIEFKVDEHVRPNTTIEALAKLKPAFKKDGTVTAGNASGINDAAAAVVVMSKEKADELGIKPLATIKSFGYAGVDPSIMGIGPVYATRKALEKANLTVDDLDLIEANEAFAAQSLAVAKELKFNMDRVNVNGGAIAIGHPIGASGCRILVTLLYEMQKRNSHTGLATLCIGGGMGIAMVVER
notes: as for B1
On to B3, for which the Km in series [4] (0.3 mM NADH) is 2400 ± 580 µM.

B4: Tt_Thl (Thermoanaerobacterium thermosaccharolyticum DSM 571; H156N/N223V/P222F/R133G) (protein)
chain: MKEVVIASGVRTAVGKFGGTLLNVPAVDLGAVVIKEALKRANVKPEDVSEVIMGNVLQAGLGQNPARQAEIKAGIPVEVPAMTVNMVCGSGLRAVTLAAQAVMLGDADIVVAGGMENMSRAPYILNDARFGYGMNNGQLVDEMVYDGLTDVFNQYNMGITAENLAEKYGISREEQDEFAYRSQKLASEAISSGRFEDEIVPVIVPQKKGEPIEFKVDEHVRFVTTIEALAKLKPAFKKDGTVTAGNASGINDAAAAVVVMSKEKADELGIKPLATIKSFGYAGVDPSIMGIGPVYATRKALEKANLTVDDLDLIEANEAFAAQSLAVAKELKFNMDRVNVNGGAIAIGHPIGASGCRILVTLLYEMQKRNSHTGLATLCIGGGMGIAMVVER
notes: as for B1
Turning to B4, in series [4] (variant M2, NADH), the Michaelis constant (Km) amounted to 2600 ± 500 µM and the maximal velocity (Vmax) worked out at 45.2 µmol/min/mg.

B5: Tt_Thl (Thermoanaerobacterium thermosaccharolyticum DSM 571; N153Y/S287K/V77Q) (protein)
chain: MKEVVIASGVRTAVGKFGGTLLNVPAVDLGAVVIKEALKRANVKPEDVSEVIMGNVLQAGLGQNPARQAEIKAGIPQEVPAMTVNMVCGSGLRAVTLAAQAVMLGDADIVVAGGMENMSRAPYILNDARFGYRMNNGQLVDEMVYDGLTDVFYQYHMGITAENLAEKYGISREEQDEFAYRSQKLASEAISSGRFEDEIVPVIVPQKKGEPIEFKVDEHVRPNTTIEALAKLKPAFKKDGTVTAGNASGINDAAAAVVVMSKEKADELGIKPLATIKSFGYAGVDPKIMGIGPVYATRKALEKANLTVDDLDLIEANEAFAAQSLAVAKELKFNMDRVNVNGGAIAIGHPIGASGCRILVTLLYEMQKRNSHTGLATLCIGGGMGIAMVVER
notes: as for B1
As to B5, in series [4] (variant M1, NADH), the Michaelis constant (Km) is 3300 ± 700 µM and the Vmax came out at 15.3 µmol/min/mg.
